Changes are numbered by the printed parent chain. Numbers in names are those of the source. One block for each binder: values may come before it.
What was measured:
Experiment in all cases: ELISA
[1] = target: T1, human EphA6 extracellular region-SEAP-His protein (human, UniProt Q9UF33 23-550)
T1 construct: extracellular domain; also called hEphA6-SEAP-His
T1 sequence (looked up): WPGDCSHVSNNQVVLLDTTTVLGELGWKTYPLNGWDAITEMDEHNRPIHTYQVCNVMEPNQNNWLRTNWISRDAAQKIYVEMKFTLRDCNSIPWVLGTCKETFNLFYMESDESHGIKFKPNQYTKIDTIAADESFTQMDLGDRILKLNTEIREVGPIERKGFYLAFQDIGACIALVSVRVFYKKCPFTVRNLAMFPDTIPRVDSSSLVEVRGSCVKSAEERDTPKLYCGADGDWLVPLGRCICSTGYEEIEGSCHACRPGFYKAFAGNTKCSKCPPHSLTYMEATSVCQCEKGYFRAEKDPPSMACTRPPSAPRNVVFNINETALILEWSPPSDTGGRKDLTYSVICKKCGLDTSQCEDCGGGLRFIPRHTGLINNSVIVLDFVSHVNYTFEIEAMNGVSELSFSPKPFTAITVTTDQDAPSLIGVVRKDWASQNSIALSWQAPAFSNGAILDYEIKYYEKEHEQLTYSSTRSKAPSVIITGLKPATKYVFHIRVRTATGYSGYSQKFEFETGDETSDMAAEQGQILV

[2] = target: T2, human EphB2 extracellular region-SEAP-His protein (human, UniProt P29323 19-543)
T2 construct: extracellular domain; also called hEphB2-SEAP-His
T2 sequence (looked up): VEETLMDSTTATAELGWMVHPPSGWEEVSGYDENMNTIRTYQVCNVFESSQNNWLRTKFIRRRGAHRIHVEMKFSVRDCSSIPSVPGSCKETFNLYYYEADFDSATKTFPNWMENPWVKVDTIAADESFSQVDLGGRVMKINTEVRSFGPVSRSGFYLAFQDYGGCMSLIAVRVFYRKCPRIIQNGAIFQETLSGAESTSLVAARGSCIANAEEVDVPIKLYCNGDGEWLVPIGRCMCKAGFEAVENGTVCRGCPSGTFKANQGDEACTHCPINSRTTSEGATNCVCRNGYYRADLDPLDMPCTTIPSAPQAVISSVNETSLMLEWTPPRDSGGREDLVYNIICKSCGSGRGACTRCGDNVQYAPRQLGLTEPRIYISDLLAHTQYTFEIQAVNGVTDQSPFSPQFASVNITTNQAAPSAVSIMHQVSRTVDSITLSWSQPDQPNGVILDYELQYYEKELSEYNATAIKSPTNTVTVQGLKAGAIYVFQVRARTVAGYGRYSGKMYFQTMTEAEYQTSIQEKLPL

[3] = target: T3, human EphA5 extracellular region-SEAP-His protein (human, UniProt P54756 25-573)
T3 construct: extracellular domain; also called hEphA5-SEAP-His

[4] = target: T4, human EphB6 extracellular region-SEAP-His protein (human, UniProt O15197 32-594)
T4 construct: extracellular domain; also called hEphB6-SEAP-His
T4 sequence (looked up): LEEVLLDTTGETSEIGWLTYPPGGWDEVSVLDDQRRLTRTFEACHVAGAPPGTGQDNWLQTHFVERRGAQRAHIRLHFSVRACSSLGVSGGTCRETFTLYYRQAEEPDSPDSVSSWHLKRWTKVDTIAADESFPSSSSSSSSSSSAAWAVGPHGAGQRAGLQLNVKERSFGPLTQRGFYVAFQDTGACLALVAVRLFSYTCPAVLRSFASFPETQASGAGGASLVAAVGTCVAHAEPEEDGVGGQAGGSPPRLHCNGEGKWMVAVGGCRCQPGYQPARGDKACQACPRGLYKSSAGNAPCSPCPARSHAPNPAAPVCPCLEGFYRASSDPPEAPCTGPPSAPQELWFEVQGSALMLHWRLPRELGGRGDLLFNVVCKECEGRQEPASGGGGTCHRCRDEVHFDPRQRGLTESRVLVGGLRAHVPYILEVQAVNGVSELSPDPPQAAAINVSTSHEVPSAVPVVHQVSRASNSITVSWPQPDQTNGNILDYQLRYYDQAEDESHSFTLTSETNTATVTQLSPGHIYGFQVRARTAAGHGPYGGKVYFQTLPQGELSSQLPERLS

[5] = target: T5, human EphB3 extracellular region-SEAP-His protein (human, UniProt P54753 34-559)
T5 construct: extracellular domain; also called hEphB3-SEAP-His
T5 sequence (looked up): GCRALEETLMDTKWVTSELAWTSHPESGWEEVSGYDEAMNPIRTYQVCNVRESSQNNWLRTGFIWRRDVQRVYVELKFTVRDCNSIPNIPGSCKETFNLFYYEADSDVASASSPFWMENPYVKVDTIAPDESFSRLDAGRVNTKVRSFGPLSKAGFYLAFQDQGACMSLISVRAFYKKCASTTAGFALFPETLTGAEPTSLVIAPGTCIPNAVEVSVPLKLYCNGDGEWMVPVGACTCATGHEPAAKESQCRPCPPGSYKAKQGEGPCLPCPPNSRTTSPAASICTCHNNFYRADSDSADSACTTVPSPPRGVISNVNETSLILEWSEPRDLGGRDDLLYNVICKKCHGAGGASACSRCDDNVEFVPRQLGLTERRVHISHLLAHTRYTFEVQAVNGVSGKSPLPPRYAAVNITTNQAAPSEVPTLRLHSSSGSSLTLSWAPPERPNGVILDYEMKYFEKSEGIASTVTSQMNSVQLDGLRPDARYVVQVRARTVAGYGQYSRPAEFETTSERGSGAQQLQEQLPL

T3 sequence (P54756 25-573): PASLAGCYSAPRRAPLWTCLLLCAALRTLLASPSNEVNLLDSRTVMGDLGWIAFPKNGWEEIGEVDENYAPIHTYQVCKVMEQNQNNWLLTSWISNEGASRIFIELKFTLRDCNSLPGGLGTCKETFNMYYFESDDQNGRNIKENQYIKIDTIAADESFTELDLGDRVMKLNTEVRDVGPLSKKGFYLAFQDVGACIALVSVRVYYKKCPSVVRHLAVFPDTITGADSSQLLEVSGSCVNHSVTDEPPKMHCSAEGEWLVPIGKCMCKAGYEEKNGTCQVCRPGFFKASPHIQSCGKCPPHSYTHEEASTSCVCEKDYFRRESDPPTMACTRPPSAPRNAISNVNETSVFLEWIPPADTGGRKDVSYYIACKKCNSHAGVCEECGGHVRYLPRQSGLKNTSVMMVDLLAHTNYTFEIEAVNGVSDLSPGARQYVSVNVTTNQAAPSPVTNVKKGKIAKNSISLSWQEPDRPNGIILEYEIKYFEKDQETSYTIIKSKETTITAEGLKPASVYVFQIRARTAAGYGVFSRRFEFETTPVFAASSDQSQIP

B1: humanized antibody No. 76 (antibody, human IgG1, kappa)
heavy: QVQLVQSGSELKKPGASVKVSCKASGYTFTDYSMHWVRQAPGQGLKWMGWINTETGEPTYAQGFTGRFVFSLDTSVSTAYLQISSLKAEDTAVYYCARIPLYYYGSRYWYFDVWGQGTTVTVSSASTKGPSVFPLAPSSKSTSGGTAALGCLVKDYFPEPVTVSWNSGALTSGVHTFPAVLQSSGLYSLSSVVTVPSSSLGTQTYICNVNHKPSNTKVDKRVEPKSCDKTHTCPPCPAPPAAAPSVFLFPPKPKDTLMISRTPEVTCVVVDVSHEDPEVQFNWYVDGVEVHNAKTKPREEQFNSTFRVVSVLTVVHQDWLNGKEYKCKVSNKGLPAPIEKTISKTKGQPREPQVYTLPPSREEMTKNQVSLTCLVKGFYPSDIAVEWESNGQPENNYKTTPPMLDSDGSFFLYSKLTVDKSRWQQGNVFSCSVMHEALHNHYTQKSLSLSPG
light: DIQMTQSPSSLSASVGDRVTITCRASENIYRNLAWYQQKPGKAPKLLVYAATNLADGVPSRFSGSGSGTDYTLTISSLQPEDFATYYCQHFWGTPWTFGQGTKVEIKRTVAAPSVFIFPPSDEQLKSGTASVVCLLNNFYPREAKVQWKVDNALQSGNSQESVTEQDSKDSTYSLSSTLTLSKADYEKHKVYACEVTHQGLSSPVTKSFNRGEC
notes: human Ig kappa; also called L1-4/HA2
A450 as % of hEphA4-SEAP-His [1]: 7.9% | A450 as % of hEphA4-SEAP-His [2]: 4.9% | A450 as % of hEphA4-SEAP-His [3]: 5.3% | A450 as % of hEphA4-SEAP-His [4]: 5.2% | A450 as % of hEphA4-SEAP-His [5]: 5%

B2: humanized antibody No. 78 (antibody, human IgG1, kappa)
heavy: B1 heavy with Q62D, G63D, T65K
light: B1 light
notes: human Ig kappa; also called L1-4/HK2
A450 as % of hEphA4-SEAP-His [1]: 10% | A450 as % of hEphA4-SEAP-His [2]: 5.1% | A450 as % of hEphA4-SEAP-His [3]: 5.1% | A450 as % of hEphA4-SEAP-His [4]: 5.2% | A450 as % of hEphA4-SEAP-His [5]: 5.2%

B3: humanized antibody No. 69 (antibody, human IgG1, kappa)
heavy: B1 heavy with V2I, Q62D, G63D, T65K
light: B1 light
notes: human Ig kappa; also called L1-4/HK4
A450 as % of hEphA4-SEAP-His [1]: 9.5% | A450 as % of hEphA4-SEAP-His [2]: 5.5% | A450 as % of hEphA4-SEAP-His [3]: 5.6% | A450 as % of hEphA4-SEAP-His [4]: 5.6% | A450 as % of hEphA4-SEAP-His [5]: 5.9%

B5: humanized antibody No. 77 (antibody, human IgG1, kappa)
heavy: B1 heavy with K46E, Q62D, G63D, T65K
light: B1 light
notes: human Ig kappa; also called L1-4/HK1
A450 as % of hEphA4-SEAP-His [1]: 6% | A450 as % of hEphA4-SEAP-His [2]: 4.5% | A450 as % of hEphA4-SEAP-His [3]: 4.4% | A450 as % of hEphA4-SEAP-His [4]: 4.5% | A450 as % of hEphA4-SEAP-His [5]: 4.6%

B8: humanized antibody No. 75 (antibody, human IgG1, kappa)
heavy: B1 heavy with K46E
light: B1 light
notes: constant region: human IgG1 CH1 and hinge, human IgG2 CH2 and CH3 with V234A, G237A, no C-terminal Lys; human Ig kappa; also called L1-4/HA1
A450 as % of hEphA4-SEAP-His [1]: 8.3% | A450 as % of hEphA4-SEAP-His [2]: 4.5% | A450 as % of hEphA4-SEAP-His [3]: 4.7% | A450 as % of hEphA4-SEAP-His [4]: 4.7% | A450 as % of hEphA4-SEAP-His [5]: 4.7%

B9: humanized antibody No. 67 (antibody, human IgG1, kappa)
heavy: B1 heavy with V2I
light: B1 light
notes: human Ig kappa; also called L1-4/HA4
A450 as % of hEphA4-SEAP-His [1]: 7.3% | A450 as % of hEphA4-SEAP-His [2]: 4.7% | A450 as % of hEphA4-SEAP-His [3]: 4.8% | A450 as % of hEphA4-SEAP-His [4]: 4.7% | A450 as % of hEphA4-SEAP-His [5]: 4.9%

Next, values leading:

A450 as % of hEphA4-SEAP-His [1]: 8.8% | A450 as % of hEphA4-SEAP-His [2]: 5% | A450 as % of hEphA4-SEAP-His [3]: 4.9% | A450 as % of hEphA4-SEAP-His [4]: 5% | A450 as % of hEphA4-SEAP-His [5]: 4.9%
B4: humanized antibody No. 81 (antibody, human IgG1, kappa)
heavy: B1 heavy with K46E
light: B1 light with V48L, P80S
notes: human Ig kappa; also called L1-5/HA1

A450 as % of hEphA4-SEAP-His [1]: 7.5% | A450 as % of hEphA4-SEAP-His [2]: 5.6% | A450 as % of hEphA4-SEAP-His [3]: 5.8% | A450 as % of hEphA4-SEAP-His [4]: 5.8% | A450 as % of hEphA4-SEAP-His [5]: 5.7%
B6: humanized antibody No. 83 (antibody, human IgG1, kappa)
heavy: B1 heavy with V2I
light: B1 light with V48L, P80S
notes: human Ig kappa; also called L1-5/HA4

A450 as % of hEphA4-SEAP-His [1]: 8.7% | A450 as % of hEphA4-SEAP-His [2]: 5.6% | A450 as % of hEphA4-SEAP-His [3]: 6.5% | A450 as % of hEphA4-SEAP-His [4]: 5.5% | A450 as % of hEphA4-SEAP-His [5]: 5.6%
B7: humanized antibody No. 82 (antibody, human IgG1, kappa)
heavy: B1 heavy
light: B1 light with V48L, P80S
notes: human Ig kappa; also called L1-5/HA2

Reference: US20190077860A1 (EISAI R AND D MANAGEMENT, published 2019)
